IntAct's records for PubMed 22184064

Target: CCNY, Q8ND76-1
Sequence (Q8ND76 whole entry): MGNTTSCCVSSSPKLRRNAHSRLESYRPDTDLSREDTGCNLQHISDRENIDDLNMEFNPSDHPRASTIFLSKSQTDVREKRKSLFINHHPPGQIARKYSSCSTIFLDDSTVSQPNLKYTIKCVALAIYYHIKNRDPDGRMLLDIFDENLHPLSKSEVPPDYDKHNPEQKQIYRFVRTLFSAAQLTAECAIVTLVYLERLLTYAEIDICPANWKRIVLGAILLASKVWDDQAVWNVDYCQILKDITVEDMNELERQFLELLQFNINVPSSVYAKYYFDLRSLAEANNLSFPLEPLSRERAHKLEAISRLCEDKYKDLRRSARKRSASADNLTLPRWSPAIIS

Sequence of Cyclin-dependent kinase 16 (Homo sapiens), Q00536 S153D (Q00536 whole entry S153D): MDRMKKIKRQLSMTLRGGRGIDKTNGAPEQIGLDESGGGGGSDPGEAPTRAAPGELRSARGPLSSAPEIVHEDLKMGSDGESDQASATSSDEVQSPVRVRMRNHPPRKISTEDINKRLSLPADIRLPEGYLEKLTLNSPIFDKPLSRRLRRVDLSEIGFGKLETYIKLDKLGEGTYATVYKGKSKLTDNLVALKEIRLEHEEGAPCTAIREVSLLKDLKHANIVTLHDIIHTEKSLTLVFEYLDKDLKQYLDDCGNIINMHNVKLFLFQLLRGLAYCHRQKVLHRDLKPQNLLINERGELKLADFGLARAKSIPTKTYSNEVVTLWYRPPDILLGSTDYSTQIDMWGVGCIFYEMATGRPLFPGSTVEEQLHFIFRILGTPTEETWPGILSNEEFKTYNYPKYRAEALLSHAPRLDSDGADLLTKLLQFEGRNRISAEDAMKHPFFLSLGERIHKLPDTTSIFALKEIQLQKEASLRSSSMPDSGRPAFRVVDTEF
Sequence of Cyclin-dependent kinase 16 (Homo sapiens), Q00536 I209T (Q00536 whole entry I209T): as the sequence (Q00536 whole entry S153D) above, with D153S, I209T counted along it
Sequence of Cyclin-dependent kinase 16 (Homo sapiens), Q00536 S119A (Q00536 whole entry S119A): as the sequence (Q00536 whole entry S153D) above, with S119A, D153S counted along it
Sequence of Cyclin-dependent kinase 16 (Homo sapiens), Q00536 K216E (Q00536 whole entry K216E): as the sequence (Q00536 whole entry S153D) above, with D153S, K216E counted along it
Sequence of Cyclin-dependent kinase 16 (Homo sapiens), Q00536 S153A (Q00536 whole entry S153A): as the sequence (Q00536 whole entry S153D) above, with D153A counted along it
Sequence of Cyclin-dependent kinase 16 (Homo sapiens), Q00536 G158D (Q00536 whole entry G158D): as the sequence (Q00536 whole entry S153D) above, with D153S, G158D counted along it

Substance | effect of a mutation on the interaction
Cyclin-dependent kinase 16 (Homo sapiens), Q00536 G158D | disrupting interaction strength
Cyclin-dependent kinase 16 (Homo sapiens), Q00536 I209T | disrupting interaction strength
Cyclin-dependent kinase 16 (Homo sapiens), Q00536 K216E | disrupting interaction strength
Cyclin-dependent kinase 16 (Homo sapiens), Q00536 S119A | disrupting interaction strength
Cyclin-dependent kinase 16 (Homo sapiens), Q00536 S153A | increasing interaction strength
Cyclin-dependent kinase 16 (Homo sapiens), Q00536 S153D | disrupting interaction strength
